The assay deals with biotinylated soluble single-chain Vb8-Va3 TCR (mouse). Briefly: flow cytometry titration of whole yeast cells with biotinylated scTCR, Scatchard analysis; assumes 100% active scTCR. On the technique in general: Flow cytometry measures light scatter and fluorescence of single cells or particles in a stream.

This is an account of results in patent US7465787.

As a reminder, the Kd is the equilibrium constant for the complex coming apart. A low value points to tighter binding. Turning to “wt scFv-KJ16 displayed on yeast as Aga2p-HA-scFv-KJ16-c-myc fusion (from UniProt P32781 19-87)”, the Kd is 500 nM.
